Laboratory results from US20220332804A1 (CSL INNOVATION, published 2022).

Assays:
Assay in all cases: SPR, antibody captured, C2 as analyte;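 note: biacore SPR at 37 °C, anti-C2 mAbs captured via goat anti-human IgG on CM5 chips, double-referenced sensorgrams fit to a 1:1 kinetic or steady-state model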
human C2 V418A = molecular target: T1, human C2 V418A (human, UniProt P06681 21-752)
T1 sequence: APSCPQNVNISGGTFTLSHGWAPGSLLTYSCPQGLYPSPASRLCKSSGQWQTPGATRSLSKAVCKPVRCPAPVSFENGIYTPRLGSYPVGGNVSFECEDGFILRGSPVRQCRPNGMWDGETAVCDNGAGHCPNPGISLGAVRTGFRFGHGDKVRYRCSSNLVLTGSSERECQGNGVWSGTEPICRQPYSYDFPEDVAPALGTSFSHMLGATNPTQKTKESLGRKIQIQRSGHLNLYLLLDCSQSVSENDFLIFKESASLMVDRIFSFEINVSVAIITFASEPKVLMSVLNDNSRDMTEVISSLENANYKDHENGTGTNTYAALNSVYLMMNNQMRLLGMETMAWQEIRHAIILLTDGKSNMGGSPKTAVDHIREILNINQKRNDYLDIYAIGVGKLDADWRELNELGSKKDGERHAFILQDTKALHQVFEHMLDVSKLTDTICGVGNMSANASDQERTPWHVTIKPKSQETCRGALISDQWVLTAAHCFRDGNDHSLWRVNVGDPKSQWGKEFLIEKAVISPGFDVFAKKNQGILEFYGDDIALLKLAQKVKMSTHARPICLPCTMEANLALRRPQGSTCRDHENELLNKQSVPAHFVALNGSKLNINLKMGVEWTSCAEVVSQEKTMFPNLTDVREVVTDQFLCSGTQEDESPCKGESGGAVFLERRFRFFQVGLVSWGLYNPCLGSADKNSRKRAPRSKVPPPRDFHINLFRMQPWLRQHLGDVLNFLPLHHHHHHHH

human C2 K531A = molecular target: T2, human C2 K531A (human, UniProt P06681 21-752)
T2 sequence: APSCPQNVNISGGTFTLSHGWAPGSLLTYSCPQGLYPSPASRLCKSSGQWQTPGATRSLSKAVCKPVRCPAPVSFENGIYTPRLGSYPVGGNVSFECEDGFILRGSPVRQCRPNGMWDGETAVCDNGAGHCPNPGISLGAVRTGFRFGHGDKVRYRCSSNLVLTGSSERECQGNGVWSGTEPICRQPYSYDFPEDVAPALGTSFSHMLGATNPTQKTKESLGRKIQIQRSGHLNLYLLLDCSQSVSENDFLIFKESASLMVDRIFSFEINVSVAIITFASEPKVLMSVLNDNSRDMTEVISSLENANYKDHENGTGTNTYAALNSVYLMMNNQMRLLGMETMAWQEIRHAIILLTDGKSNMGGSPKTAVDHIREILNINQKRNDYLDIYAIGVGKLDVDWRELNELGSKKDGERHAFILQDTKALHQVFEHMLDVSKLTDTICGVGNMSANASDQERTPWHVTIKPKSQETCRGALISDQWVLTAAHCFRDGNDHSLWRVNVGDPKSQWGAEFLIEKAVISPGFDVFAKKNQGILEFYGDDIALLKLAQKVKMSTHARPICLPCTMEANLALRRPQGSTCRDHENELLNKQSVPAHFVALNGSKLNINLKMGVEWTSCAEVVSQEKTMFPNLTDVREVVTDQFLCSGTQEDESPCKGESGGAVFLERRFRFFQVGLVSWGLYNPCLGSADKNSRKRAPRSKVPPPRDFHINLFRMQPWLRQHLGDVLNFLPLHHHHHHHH

human C2 P704A = molecular target: T3, human C2 P704A (human, UniProt P06681 21-752)
T3 sequence: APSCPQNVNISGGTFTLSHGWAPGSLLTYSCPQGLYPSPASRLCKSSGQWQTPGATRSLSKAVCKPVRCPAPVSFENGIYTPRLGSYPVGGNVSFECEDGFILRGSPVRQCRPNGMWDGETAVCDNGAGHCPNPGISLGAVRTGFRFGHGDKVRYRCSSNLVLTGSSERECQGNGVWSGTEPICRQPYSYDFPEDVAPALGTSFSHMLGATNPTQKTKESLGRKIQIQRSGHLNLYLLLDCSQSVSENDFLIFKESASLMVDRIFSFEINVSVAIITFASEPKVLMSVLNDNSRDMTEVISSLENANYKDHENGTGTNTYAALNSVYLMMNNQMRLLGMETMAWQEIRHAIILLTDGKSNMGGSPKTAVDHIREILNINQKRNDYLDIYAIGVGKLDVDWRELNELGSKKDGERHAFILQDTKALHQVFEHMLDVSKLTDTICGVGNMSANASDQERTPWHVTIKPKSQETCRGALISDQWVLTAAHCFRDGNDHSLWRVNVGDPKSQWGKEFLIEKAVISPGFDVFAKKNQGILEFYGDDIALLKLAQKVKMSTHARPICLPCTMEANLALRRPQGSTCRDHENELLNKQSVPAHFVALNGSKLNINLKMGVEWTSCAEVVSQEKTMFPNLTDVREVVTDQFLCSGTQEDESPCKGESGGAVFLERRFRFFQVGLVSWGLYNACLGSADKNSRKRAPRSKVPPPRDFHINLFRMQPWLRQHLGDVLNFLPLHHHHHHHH

human C2 T317A = molecular target: T4, human C2 T317A (human, UniProt P06681 21-752)
T4 sequence: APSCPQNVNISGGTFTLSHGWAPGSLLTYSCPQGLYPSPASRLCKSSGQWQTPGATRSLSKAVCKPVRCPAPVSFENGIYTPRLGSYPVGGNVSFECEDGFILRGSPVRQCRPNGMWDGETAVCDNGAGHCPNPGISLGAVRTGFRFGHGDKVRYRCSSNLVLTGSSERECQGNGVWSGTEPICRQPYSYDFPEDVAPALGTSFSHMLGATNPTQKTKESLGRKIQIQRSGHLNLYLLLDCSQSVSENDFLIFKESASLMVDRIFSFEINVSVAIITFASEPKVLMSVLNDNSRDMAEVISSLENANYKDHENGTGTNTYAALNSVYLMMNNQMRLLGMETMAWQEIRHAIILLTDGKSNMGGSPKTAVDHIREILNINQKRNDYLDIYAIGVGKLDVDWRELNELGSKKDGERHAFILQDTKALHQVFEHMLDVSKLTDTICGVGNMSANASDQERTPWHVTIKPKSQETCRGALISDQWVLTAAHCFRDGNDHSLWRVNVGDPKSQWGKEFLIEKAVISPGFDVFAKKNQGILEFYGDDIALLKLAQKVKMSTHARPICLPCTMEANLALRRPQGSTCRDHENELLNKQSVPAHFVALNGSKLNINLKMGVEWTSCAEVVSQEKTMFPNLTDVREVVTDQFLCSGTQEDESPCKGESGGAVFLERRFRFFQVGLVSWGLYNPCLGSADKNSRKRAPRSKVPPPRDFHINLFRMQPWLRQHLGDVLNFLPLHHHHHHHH

B1: RF16-226 (antibody, human IgG4 S228P, lambda)
heavy: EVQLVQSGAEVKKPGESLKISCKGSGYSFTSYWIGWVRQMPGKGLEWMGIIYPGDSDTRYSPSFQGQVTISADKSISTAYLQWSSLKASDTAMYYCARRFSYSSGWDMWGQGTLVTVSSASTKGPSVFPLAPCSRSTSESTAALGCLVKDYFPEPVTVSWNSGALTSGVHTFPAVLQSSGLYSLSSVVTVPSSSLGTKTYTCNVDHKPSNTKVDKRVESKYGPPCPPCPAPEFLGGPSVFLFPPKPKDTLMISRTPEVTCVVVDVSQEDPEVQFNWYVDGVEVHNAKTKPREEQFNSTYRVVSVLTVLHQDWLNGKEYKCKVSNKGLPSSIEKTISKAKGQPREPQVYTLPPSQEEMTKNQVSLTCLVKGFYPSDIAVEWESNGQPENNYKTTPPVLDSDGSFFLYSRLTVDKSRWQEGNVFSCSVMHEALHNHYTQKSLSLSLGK
light: SYELTQPPSVSVSPGQTARITCSGDALTSKYVAWYQQKSGLAPLLVIYEDTRRPSGIPAKFSGSSSGSVATLTISGAHGDDEADYYCYSTDASGHQRVFGGGTKLTVLSQPKAAPSVTLFPPSSEELQANKATLVCLISDFYPGAVTVAWKADGSPVKAGVETTKPSKQSNNKYAASSYLSLTPEQWKSHRSYSCQVTHEGSTVEKTVAPTECS
notes: pH-dependent anti-C2 antibody from a phage display library; also called WT
Kd (human C2 V418A): 8 nM
Kd (human C2 K531A): 12.1 nM
Kd (human C2 P704A): 120 nM
Kd (human C2 T317A): 9 nM
